The source of these data is US20240092891A1.

For this test, the target named is human CLDN18.1 (human) (UniProt P56856). The experiment in a line: flow cytometry on human CLDN18.1-HEK293 cells, antibody at 100 µg/mL.
Sequence of human CLDN18.1 (human) (P56856 whole entry): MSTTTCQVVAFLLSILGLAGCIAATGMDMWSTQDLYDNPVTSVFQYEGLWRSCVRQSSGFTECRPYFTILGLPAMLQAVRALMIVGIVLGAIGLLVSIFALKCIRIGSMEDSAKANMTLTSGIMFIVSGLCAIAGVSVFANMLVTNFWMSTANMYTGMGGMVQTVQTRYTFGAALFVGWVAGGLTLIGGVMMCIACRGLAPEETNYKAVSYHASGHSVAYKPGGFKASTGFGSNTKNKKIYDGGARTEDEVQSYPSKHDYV

B1: humanized antibody NA7-S-H2 (Fc fusion, not shown: a dimerising Fc or GST)
chain: EVQLVESGGGLVQPGGSLRLSCAASGSFFRIVAMGWYRQAPGKGRELVATITRGGSTYYADSMKGRSTISRDNAKNTVYLQMNSLKPEDTAVYYCNVRVEVPFMQPNDYWGQGTLVTVSS
B1 showed a positive rate of cell binding of 5.5%.
